Paper PMC5192466, “Kunitz-Type Peptide HCRG21 from the Sea Anemone Heteractis crispa Is a Full Antagonist of the TRPV1 Receptor” (Marine Drugs, 2016)
Where two headings read alike, the source gives them in different places. Where no end group is shown, it is not given here.

Key:
TRPV1 [1] = molecular target: T1, TRPV1 (Rattus norvegicus, UniProt O35433); assay: cell-based
T1 construct: expressed in transfected cells; host or cells: Xenopus laevis oocytes injected with cRNA
Protocol: To control the expression level of the TRPV1 channels, experiments were initiated with a first activation of TRPV1 with 1 μM capsaicin (CAP). […] This activation gives an inward non-selective cation current. […] Before application of HCRG21, cells are washed with ND96 to remove any presence of […]. […] However, when rHCRG21 was co-applied together with the agonist capsaicin, a reduction of the current was observed (Figure 5b). […] A concentration–response curve was constructed in order to assess the concentration dependence of the rHCRG21 induced effect. The IC50 value yielded 6.9 ± 0.4 μM (Figure 5c).
Figure 5 Activity profile of rHCRG21 (10 μM) on the TRPV1 receptor. The figures show the results of one representative experiment. Whole-cell current traces in control and rHCRG21 conditions are shown. […] All data represent the average of at least three independent experiments (n ≥ 3) and are presented as mean ± standard error; (c) Concentration–response curve for rHCRG21 on TRPV1 receptor.
For the expression of rKv1.1, hKv1.3, rKv1.4, rKv1.5, rKv1.6, Shaker IR, hERG, and TRPV1 in Xenopus oocytes, the linearized plasmids were transcribed using the T7 or SP6 mMESSAGE-mMACHINE transcription kit (Ambion, Austin, TX, USA). The harvesting of stage V–VI oocytes from anaesthetized female Xenopus laevis frog was previously described. Oocytes were injected with 50 nL of cRNA at a concentration of 1 ng/nL using a micro-injector (Drummond Scientific, Broomall, PA, USA). The oocytes were incubated in a solution containing (in mM): NaCl, 96; KCl, 2; CaCl2, 1.8; MgCl2, 2 and HEPES, 5 (pH 7.4), supplemented with 50 mg/L gentamicin sulfate.
Two-electrode voltage-clamp recordings were performed at room temperature (18–22 °C) using a Geneclamp 500 amplifier (Molecular Devices, Sunnyvale, CA, USA) controlled by a pClamp data acquisition system (Axon Instruments, Foster City, CA, USA). Whole cell currents from oocytes were recorded 1–4 days after injection. Bath solution composition was ND96 (in mM): NaCl, 96; KCl, 2; CaCl2, 1.8; MgCl2, 2, and HEPES, 5 (pH 7.4). Voltage and current electrodes were filled with 3 M KCl. Resistances of both electrodes were kept between 0.8 and 1.5 MΩ. The elicited currents were filtered and sampled at, respectively, 1 kHz and 10 kHz (for potassium currents) and at, respectively, 0.2 kHz and 0.5 kHz (for TRPV1 currents), using a four-pole low-pass Bessel filter. Leak subtraction was performed using a –P/4 protocol. KV1.1–KV1.6 and Shaker currents were evoked by 500 ms depolarizations to 0 mV followed by a 500 ms pulse to −50 mV, from a holding potential of −90 mV. Current traces of hERG channels were elicited by applying a +40 mV prepulse for 2 s followed by a step to −120 mV for 2 s. TRPV1 currents were measured in ND96 solution using a protocol of −90 mV during 400 s. The recording chamber was perfused at a rate of 2 mL·min^−1 with a ND96 solution. As previously described, capsaicin (2 μM) was used as an agonist and capsazepine (10 μM) as an antagonist of TRPV1. Capsaicin and capsazepine were purchased from Sigma. All data represent at least 3 independent experiments (n ≥ 3) in which independent experiments represent experiments on different cells expressing TRPV1 channel and are presented as mean ± standard error.

α-chymotrypsin [2] = molecular target: α-chymotrypsin (Bos taurus, UniProt P00766); conditions: cited from earlier work
Description: The HCGS peptide subfamily and their evolutionary relationships were described in details previously. […] Moreo ...

TRPV1 [3] = molecular target: T1, TRPV1; conditions: cited from earlier work
Description: They are the first sea anemone peptide characterized as TRPV1 modulators. […] It belongs to the family of polymodal TRP channels, serving as a molecular cellular sensor, which is activated by a wide spectrum of physical and chemical stimuli. They have diverse biophysical properties such as cation selectivity, specific mechanisms of activation, and they play the main role in ma ... || To control the expression level of the TRPV1 channels, experiments were initiated with a first activation of TRPV1 with 1 μM capsaicin (CAP). […] This activation gives an inward non-selective cation current. […] Before application of HCRG21, cells are washed with ND96 to remove any presence of capsazepine. […] Similarly ... || (+ 3 further places)

trypsin [4] = conditions: cited from earlier work
Description: The HCGS peptide subfamily and their evolutionary relationships were described in details previously. […] It is shown, that the first known H. crispa analgesic Kunitz-type peptides, APHC1–APHC3, have a Thr residue (instead of Lys or Arg) at position P1, similar to other representatives of the analgesic cluster (Figure 1a,b).

[5] = test system: voltage-gated potassium channels; conditions: cited from earlier work
Description: For many potent Kv channel blocking toxins, such as α-DTX, DTX-K, and DTX-I, isolated from the snake Dendroaspis polylepis, it has been well established that mainly a series of positive charged residues (for example, R3, R4, K5, K37, K39, K46, and K50 in α-DTX) are crucial for interaction with the Kv channel. […] Although there are many positively charged residues present in the sequence of HCRG21, they do differ in position with known Kv1.1–Kv1.6 blockers, such as α-DTX, DTX-K, DTX-I, AsKC1, and ShPI-1 (Figure 1c). […] Noteworthy, several positively charged residues are conserved between HCRG21 and ShPI-1 (in positions 8, 19, 28, 51, and 55, Figure 1c). Therefore, other Kv channel isoforms should be tested for their sensitivity to HCRG21 as ...

[6] = test system: serine, cysteine and aspartate proteases; conditions: cited from earlier work
Description: To date, a number of highly homologous native serine protease inhibitors has been isolated from different species: Anemonia sulcata, Heteractis crispa, Anthopleura aff. xanthogrammica, Anthopleura fuscoviridis, Stichodactyla helianthus, and Stichodactyla haddoni.

α-chymotrypsin [7] = assay: enzyme inhibition kinetics (Dixon method); trypsin with BAPNA, α-chymotrypsin with BTEE as substrate; substrate concentrations 133 and 65 mM; both enzymes 215 nM; peptide 0 up to 3.2 mM; three parallel experiments
[8] = molecular target: transient receptor potential family member vanilloid 1 (TRPV1) (UniProt O35433)
Chain of transient receptor potential family member vanilloid 1 (TRPV1) (O35433 whole entry): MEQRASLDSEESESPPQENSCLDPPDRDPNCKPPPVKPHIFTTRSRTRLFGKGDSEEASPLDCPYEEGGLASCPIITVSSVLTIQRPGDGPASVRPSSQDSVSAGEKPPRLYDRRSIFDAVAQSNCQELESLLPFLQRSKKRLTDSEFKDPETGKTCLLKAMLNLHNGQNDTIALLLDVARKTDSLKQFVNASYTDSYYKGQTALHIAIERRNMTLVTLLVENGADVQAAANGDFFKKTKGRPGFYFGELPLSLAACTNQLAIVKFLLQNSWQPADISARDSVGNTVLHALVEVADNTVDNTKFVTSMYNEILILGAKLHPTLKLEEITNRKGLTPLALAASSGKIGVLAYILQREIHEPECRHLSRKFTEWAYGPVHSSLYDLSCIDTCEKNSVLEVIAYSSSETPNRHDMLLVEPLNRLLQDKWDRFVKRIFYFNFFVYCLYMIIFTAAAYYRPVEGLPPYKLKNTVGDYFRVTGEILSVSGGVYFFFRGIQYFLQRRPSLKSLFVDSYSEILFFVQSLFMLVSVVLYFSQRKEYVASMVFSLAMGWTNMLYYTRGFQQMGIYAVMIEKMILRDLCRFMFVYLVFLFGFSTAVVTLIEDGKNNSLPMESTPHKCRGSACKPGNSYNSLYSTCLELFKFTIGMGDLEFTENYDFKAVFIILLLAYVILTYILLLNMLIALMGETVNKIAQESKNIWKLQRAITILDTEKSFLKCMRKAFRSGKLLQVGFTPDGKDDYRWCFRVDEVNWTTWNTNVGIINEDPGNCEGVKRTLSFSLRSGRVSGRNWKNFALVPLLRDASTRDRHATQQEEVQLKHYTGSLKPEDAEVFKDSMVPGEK

trypsin [9] = assay: enzyme inhibition kinetics (Dixon method); trypsin with BAPNA, α-chymotrypsin with BTEE as substrate; substrate concentrations 133 and 65 mM; both enzymes 215 nM; peptide 0 up to 3.2 mM; three parallel experiments

T1 sequence (O35433 whole entry): as above

COc1cc(CNC(=O)CCCC/C=C/C(C)C)ccc1O [capsaicin, reference compound]
effect on TRPV1 (control agonist) (TRPV1 [1]): opens the channels

Oc1cc2c(cc1O)CN(C(=S)NCCc1ccc(Cl)cc1)CCC2 [capsazepine, reference compound]
effect on capsaicin-activated TRPV1 (control antagonist) (TRPV1 [1]): closes the channels allowing the current levels to return to zero

APHC1: H. crispa analgesic Kunitz-type peptide (UniProt B2G331)
Ki (α-chymotrypsin [2]): 5000 nM

APHC1: H. crispa analgesic Kunitz-type peptide (UniProt B2G331) (GSICLEPKVVGPCTAYFRRFYFDSETGKCTVFIYGGCEGNGNNFETLRACRAICRA; three disulfides (Kunitz fold)) [reference compound]
EC50 (TRPV1 [3]; read-out: EC50, decrease of capsaicin induced currents through TRPV1): 54 ± 4 nM

APHC2: H. crispa analgesic Kunitz-type peptide (UniProt C0HJF4)
Ki (α-chymotrypsin [2]): 4500 nM

APHC3: H. crispa analgesic Kunitz-type peptide (UniProt C0HJF3)
Ki (α-chymotrypsin [2]): 7000 nM

AsKC1: kalicludine from Anemonia sulcata (UniProt Q9TWG0) (INKDCLLPMDVGRCRASHPRYYYNSSSKRCEKFIYGGCRGNANNFHTLEECEKVCGVR; ends and bridges not checked; cysteine pairing not given here; UniProt Q9TWG0 1-58, looked up)
Ki (trypsin [4]): < 0.3 nM

AsKC2: kalicludine from Anemonia sulcata (UniProt Q9TWF9) (INKDCLLPMDVGRCRARHPRYYYNSSSRRCEKFIYGGCRGNANNFITKKECEKVCGVR; ends and bridges not checked; cysteine pairing not given here; UniProt Q9TWF9 1-58, looked up)
Ki (trypsin [4]): < 0.3 nM

AsKC3: Kunitz-type peptide from Anemonia sulcata (UniProt Q9TWF8) (INGDCELPKVVGRCRARFPRYYYNLSSRRCEKFIYGGCGGNANNFHTLEECEKVCGVRS; ends and bridges not checked; cysteine pairing not given here; UniProt Q9TWF8 1-59, looked up)
Ki (trypsin [4]): < 0.3 nM

SHPI-1: protease inhibitor from the sea anemone Stichodactyla helianthus (UniProt P31713) (SICSEPKKVGRCKGYFPRFYFDSETGKCTPFIYGGCGGNGNNFETLHQCRAICRA; UniProt P31713 1-55, looked up)
Ki (trypsin [4]): 0.11 nM | Ki (α-chymotrypsin [2]): 2.3 nM | binding to Kv1.1, Kv1.2, and Kv1.6 channels [5]: binds with high affinity | protease inhibitory specificity [6]: inhibits not only serine but also cysteine and aspartate proteases

recombinant HCRG21, Kunitz-type peptide from the sea anemone Heteractis crispa (from UniProt P0DL86 1-56)
Ki (α-chymotrypsin [7]): 700 nM

B1: recombinant HCRG21, Kunitz-type peptide from the sea anemone Heteractis crispa (peptide)
chain: RGICSEPKVVGPCTAYFRRFYFDSETGKCTPFIYGGCEGNGNNFETLRACRAICRA
IC50 of the inhibition of the capsaicin-induced current through TRPV1 in X. laevis oocytes (two-electrode voltage clamp, peptide co-applied with capsaicin; concentration-response curve) [8]: 6900 nM | Ki (trypsin [9]): 200 nM

B2: DkTx: double-knot toxin from the Chinese bird spider Ornithoctonus huwena (peptide, UniProt P0CH43 1-79, looked up)
Tau-theraphotoxin-Hs1a: DCAKEGEVCSWGKKCCDLDNFYCPMEFIPHCKKYKPYVPVTTNCAKEGEVCGWGSKCCHGLDCPLAFIPYCEKYRGRND
effect of DkTx on TRPV1 current (TRPV1 [3]; conformational change in the receptor upper pore region): enhances the ion current through the channel | TRPV1 agonism (TRPV1 [3]; ref 48 (DkTx), ref 49 (VaTx1–VaTx3), ref 50 (BmP01)): agonists
